The text below walks through data of patent publication US20220396612A1 (UNIVERSIT DE TOURS, published 2022).

Test [1] concerns the target T1, virus-like particles (VLPs) of BK polyomavirus VP-1 protein, serotype Ia (BK virus (BKPyV), serotype Ia, UniProt P03088 1-361).
T1 construct: self-assembled native VLPs coated on ELISA plates; also called VLP Ia; BKV VP-1, serotype Ia
T1 chain: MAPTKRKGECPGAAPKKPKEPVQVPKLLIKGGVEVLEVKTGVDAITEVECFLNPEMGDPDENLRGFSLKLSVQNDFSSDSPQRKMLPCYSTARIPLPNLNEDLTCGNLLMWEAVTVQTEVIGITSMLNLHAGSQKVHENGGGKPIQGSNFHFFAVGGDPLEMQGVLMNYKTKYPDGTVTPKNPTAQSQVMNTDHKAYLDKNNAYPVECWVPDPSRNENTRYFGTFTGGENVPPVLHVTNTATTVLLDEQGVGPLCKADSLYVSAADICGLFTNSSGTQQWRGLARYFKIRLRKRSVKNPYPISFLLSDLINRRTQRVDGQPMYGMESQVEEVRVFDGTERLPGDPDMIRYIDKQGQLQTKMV
Put plainly: ELISA on coated VLP.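 Further: hybridoma culture supernatants (mouse antibodies) tested on wells coated with 1 µg/mL VLPs, peroxidase anti-mouse detection with OPD, background from PBS-coated control wells subtracted.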 For orientation: An ELISA detects its analyte on a solid surface through an enzyme-linked reagent.
Procedure: (§1) To do this, the VLPs produced were deposited at a concentration of 1 μg/mL in PBS and incubated overnight at +4° C. The wells were then blocked for 1 h at +37° C. with a PBS/FCS (phosphate-buffered saline/fetal calf serum) mixture. After dilution in a dilution buffer containing FCS, PBS and Tween® 20, the various hybridoma culture supernatants were added for 1 h at +37° C. The wells were washed four times in a row with Wash Buffer and a secondary anti-mouse antibody coupled to peroxidase was added to the 1:2000 dilution for 1 h at +37° C. The wells were washed four more times and the substrate (OPD (ortho phenylene diamine)+H₂O₂) was added for 30 min at room temperature. A stop solution (H₂SO₄ 4N) was then added and each well was read by measuring the absorbance at 492 nm with a spectrophotometer. The value obtained for the average of the control wells (PBS in the first step) is subtracted from the optical density values obtained for each well.

For test [2], the target named is T2, virus-like particles (VLPs) of BK polyomavirus VP-1 protein, serotype Ib2 (BK virus (BKPyV), serotype Ib2, PA …, UniProt P03088 1-362).
T2 construct: native VLPs; also the immunogen; also called VLP Ib2; BK Ib2
T2 chain: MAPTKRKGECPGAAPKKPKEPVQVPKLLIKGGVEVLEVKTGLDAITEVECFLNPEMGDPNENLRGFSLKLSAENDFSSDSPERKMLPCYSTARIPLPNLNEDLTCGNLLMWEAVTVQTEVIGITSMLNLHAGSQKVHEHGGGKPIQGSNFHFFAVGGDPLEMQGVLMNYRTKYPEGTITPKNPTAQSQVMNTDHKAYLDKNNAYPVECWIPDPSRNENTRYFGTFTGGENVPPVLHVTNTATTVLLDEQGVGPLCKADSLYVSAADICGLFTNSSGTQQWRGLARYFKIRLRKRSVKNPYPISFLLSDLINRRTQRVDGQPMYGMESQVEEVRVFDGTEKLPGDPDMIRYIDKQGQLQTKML
Put plainly: ELISA on coated VLP.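 Further: hybridoma culture supernatants (mouse antibodies) tested on wells coated with 1 µg/mL VLPs, peroxidase anti-mouse detection with OPD, background from PBS-coated control wells subtracted.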
Procedure: as §1

Test [3] concerns the target T3, virus-like particles (VLPs) of BK polyomavirus VP-1 protein, serotype II (BK virus (BKPyV), serotype II, UniProt P14996 1-362).
T3 construct: native VLPs; also called VLP II
T3 chain: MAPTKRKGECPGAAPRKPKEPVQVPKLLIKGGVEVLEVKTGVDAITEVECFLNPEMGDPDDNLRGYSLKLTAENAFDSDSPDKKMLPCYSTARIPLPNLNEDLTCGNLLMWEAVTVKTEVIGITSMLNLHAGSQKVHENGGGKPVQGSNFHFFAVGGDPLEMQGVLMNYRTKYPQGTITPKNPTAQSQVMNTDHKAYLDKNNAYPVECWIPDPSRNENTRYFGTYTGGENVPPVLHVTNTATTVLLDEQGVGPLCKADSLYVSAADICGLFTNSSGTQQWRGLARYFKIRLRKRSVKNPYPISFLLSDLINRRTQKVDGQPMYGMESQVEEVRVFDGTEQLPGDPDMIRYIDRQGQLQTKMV
Put plainly: ELISA on coated VLP.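 Further: hybridoma culture supernatants (mouse antibodies) tested on wells coated with 1 µg/mL VLPs, peroxidase anti-mouse detection with OPD, background from PBS-coated control wells subtracted.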
Procedure: as §1

The target of test [4] is T4, virus-like particles (VLPs) of BK polyomavirus VP-1 protein, serotype III (BK virus (BKPyV), serotype III, UniProt P14996 1-362).
T4 construct: native VLPs; also called VLP III
T4 chain: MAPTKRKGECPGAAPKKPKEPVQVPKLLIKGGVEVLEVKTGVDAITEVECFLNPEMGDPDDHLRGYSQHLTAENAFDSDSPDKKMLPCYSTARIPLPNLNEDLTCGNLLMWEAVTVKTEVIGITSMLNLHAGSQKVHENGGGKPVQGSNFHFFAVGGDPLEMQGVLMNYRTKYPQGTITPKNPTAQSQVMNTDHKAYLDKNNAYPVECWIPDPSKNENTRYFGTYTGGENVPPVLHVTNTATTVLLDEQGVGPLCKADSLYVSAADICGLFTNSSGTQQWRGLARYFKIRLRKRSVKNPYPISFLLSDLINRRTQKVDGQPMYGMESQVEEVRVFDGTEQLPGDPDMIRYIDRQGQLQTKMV
Put plainly: ELISA on coated VLP.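 Further: hybridoma culture supernatants (mouse antibodies) tested on wells coated with 1 µg/mL VLPs, peroxidase anti-mouse detection with OPD, background from PBS-coated control wells subtracted.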
Procedure: as §1

Test [5] deals with T5, virus-like particles (VLPs) of BK polyomavirus VP-1 protein, serotype IV (BK virus (BKPyV), serotype IV, UniProt P14996 1-362).
T5 construct: native VLPs; also called VLP IV
T5 chain: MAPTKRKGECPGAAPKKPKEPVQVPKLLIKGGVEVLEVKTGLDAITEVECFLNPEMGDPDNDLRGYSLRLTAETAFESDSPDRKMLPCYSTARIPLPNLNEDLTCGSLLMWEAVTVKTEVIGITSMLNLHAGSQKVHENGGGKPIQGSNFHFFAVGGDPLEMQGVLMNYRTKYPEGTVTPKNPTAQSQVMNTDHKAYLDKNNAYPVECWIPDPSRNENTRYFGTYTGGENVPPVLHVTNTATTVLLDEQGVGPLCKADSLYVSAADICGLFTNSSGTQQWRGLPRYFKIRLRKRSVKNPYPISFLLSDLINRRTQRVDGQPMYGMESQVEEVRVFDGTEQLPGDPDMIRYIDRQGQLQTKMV
Put plainly: ELISA on coated VLP.
Procedure: as §1

The target of test [6] is T6, virus-like particles (VLPs) of JC polyomavirus VP-1 protein (JC virus (JCPyV), UniProt P03089 1-354, Assembled into virus-like particles (many VP-1 copies); the letters give one VP-1 chain.).
T6 construct: Expressed in insect cells by baculovirus; VLPs coated on ELISA plates; also called JCPyV VLPs; JCPyV
Nature of the test: ELISA on coated JCPyV VLPs.

Test [7] has as its target T2, virus-like particles (VLPs) of BK …. Nature of the test: ELISA on coated VLP (detection limit OD>0.5).
Procedure: as §1
Test [8] addresses T6, virus-like particles (VLPs) of JC …. Nature of the test: ELISA on coated VLP (detection limit OD>0.5).
Procedure: as §1
In test [9] the target is T1, virus-like particles (VLPs) of BK …. Nature of the test: ELISA on not denatured VLP (threshold OD>0.5).
Procedure: (§2) The wells were then blocked for 1 hour at +37° C. with a PBS/SVF mixture. After dilution in a dilution buffer containing SVF, PBS and Tween® 20, the individual culture supernatants or purified antibodies were added for 1 hour at +37° C. The wells were washed four times in a row with Wash Buffer and a secondary anti-mouse peroxidase antibody was added to the 1/2000 dilution for 1 hour at +37° C. The wells were washed again four times in a row and the substrate was added for 30 minutes at room temperature. A stop solution was added and then each well was read by measuring the absorbance at 492 nm with a spectrophotometer. The value obtained for the average of the control wells (PBS in the first step) was subtracted from the optical density values obtained for each well (detection threshold: OD>0.5).
Test [10] concerns the target T2, virus-like particles (VLPs) of BK …. Nature of the test: ELISA on not denatured VLP (threshold OD>0.5).
Procedure: as §2
For test [11], the target named is T3, virus-like particles (VLPs) of BK …. Nature of the test: ELISA on not denatured VLP (threshold OD>0.5).
Procedure: as §2
Test [12] deals with T5, virus-like particles (VLPs) of BK …. Nature of the test: ELISA on not denatured VLP (threshold OD>0.5).
Procedure: as §2

T6 sequence (P03089 whole entry): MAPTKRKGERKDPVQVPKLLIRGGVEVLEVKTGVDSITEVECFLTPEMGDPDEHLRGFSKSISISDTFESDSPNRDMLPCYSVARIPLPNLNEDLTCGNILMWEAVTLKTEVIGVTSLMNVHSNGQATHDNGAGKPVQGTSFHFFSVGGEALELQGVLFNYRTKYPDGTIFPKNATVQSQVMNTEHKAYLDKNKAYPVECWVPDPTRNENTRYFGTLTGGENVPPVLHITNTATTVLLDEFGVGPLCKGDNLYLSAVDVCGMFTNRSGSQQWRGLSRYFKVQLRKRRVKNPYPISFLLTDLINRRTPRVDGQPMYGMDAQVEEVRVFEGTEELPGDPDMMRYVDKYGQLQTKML

B1: monoclonal antibody ‘9B1’ derived from hybridoma 9B1 (antibody, V domains shown)
VH: DVQLQESGPGLVKPSQSLSLTCSVTGYSITSGYYWNWIRQFPGNKLEWMGYISYDGSNNYNPSLKNRISITRDTSKNQFFLKLNSVTTEDTATYYCARVDGNSWYFDVWGAGTTVTVSS
VL: DIQMTQSSSSFSVSLGDRVTITCKASEDIYNRLAWYQQKPGNAPRLLISGATSLETGVPSRFSGSGSGKDYTLSITSLQTEDVATYYCQQYWSILLTFGAGTKLELK
notes: also called ‘91B1’
As to B1, the “OD 492 nm” value in test [1] was found to be 3.13 OD; in test [2], 3.3 OD; in test [3], 1.75 OD; in test [4], 1.74 OD; in test [5], 2.52 OD; in test [7] it was 1.41 OD. Also, the “OD 492 nm” value in [8] is 0.119 OD; in [9], 4.21 OD; in test [10], 1.41 OD; in test [11], 1.07 OD; in test [12], 2.12 OD. In [6], the binding result was “no binding (tested: detection limit: OD>0.5)”.

B2: monoclonal antibody ‘14D6’ derived from hybridoma 14D6 (antibody, V domains shown)
VH: DVQLQESGPGLVKPSQSLSLTCSVTGYSITSGYYWNWIRQFPGNKLEWMGYISYDGSNNYNPSLKNRISITRDTSKNQFFLKLNSVTTEDTATYYCARWVGDWYFDVWGAGTTVTVSS
VL: DIVLTQSPASLAVSLGQRATISCRASKSVSPSGYSYMHWYQQKPGQPPKLLIYLASNLESGVPARFSGSGSGTDFTLNIHPVEEEDAATYYCQHSRELPLTFGAGTKLELK
As to B2, the “OD 492 nm” value in test [1] came to 3.24 OD; in test [2], 3.24 OD; in test [3], 3.08 OD; in test [4], 2.55 OD; in test [5], 2.62 OD; in [7], 1.55 OD. The “OD 492 nm” value in test [8] was 0.112 OD; in test [9] it was 4.04 OD; in test [10], 1.55 OD; in [11], 1.66 OD; in test [12], 2.63 OD. Also, the binding result in test [6] is “no binding (tested: detection limit: OD>0.5)”.
